# Measurements from patent US20200024322A1 (Eli Lilly, published 2020).
# Numbered stars: 1 amine (or outer) side, 2 acyl side, 3 side chain; on linkers, the order of the positions; unused ones are H or OH. Square brackets hold non-standard residues; d marks the D form. Side chains are listed from the residue outwards. Ends that are not written are not given here. * marks the point of attachment. C18 diacid = O=C(O)CCCCCCCCCCCCCCCCC(=O)*; αMePhe(2-F) = C[C@](N)(Cc1ccccc1F)C(=O)O; γGlu = O=C(O)[C@H](CCC(=O)[*:2])N[*:1]; αMeL = CC(C)C[C@](C)(N)C(=O)O; AEEA = NCCOCCOCC(=O)O; Aib = CC(C)(N)C(=O)O
# T1: human gastric inhibitory peptide receptor (GIPR) (human, UniProt P48546 22-466)
# T1 sequence (looked up): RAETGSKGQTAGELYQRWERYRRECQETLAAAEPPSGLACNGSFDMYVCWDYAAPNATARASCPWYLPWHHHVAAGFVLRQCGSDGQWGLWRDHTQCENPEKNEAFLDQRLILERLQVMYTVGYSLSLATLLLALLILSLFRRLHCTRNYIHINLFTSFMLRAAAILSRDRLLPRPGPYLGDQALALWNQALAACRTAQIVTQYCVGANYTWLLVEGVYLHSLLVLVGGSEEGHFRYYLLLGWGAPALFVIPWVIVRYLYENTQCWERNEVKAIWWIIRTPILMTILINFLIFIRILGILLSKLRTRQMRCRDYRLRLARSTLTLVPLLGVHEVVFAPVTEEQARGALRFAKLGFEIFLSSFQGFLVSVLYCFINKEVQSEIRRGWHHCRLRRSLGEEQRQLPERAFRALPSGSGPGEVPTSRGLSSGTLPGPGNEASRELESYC
# T2: human gastric inhibitory peptide receptor (GIPR) (human), P48546
# T2 chain: T1 sequence (looked up)
# T3: human GLP-1 receptor (GLP-1R) (human), P43220
# T3 chain: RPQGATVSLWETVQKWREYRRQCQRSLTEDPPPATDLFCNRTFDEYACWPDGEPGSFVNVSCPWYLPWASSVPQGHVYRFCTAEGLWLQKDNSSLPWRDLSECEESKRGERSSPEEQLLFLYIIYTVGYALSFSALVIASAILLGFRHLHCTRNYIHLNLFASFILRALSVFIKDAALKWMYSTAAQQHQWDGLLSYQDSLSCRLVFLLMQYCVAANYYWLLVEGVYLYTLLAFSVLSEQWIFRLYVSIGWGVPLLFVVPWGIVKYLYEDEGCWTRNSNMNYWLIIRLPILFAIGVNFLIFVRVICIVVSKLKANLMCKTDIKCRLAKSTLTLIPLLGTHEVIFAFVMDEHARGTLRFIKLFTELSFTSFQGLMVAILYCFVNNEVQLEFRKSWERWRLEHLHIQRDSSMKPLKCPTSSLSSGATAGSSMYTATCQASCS
# B1: (D-Tyr)-Aib-EGTFTSDYSI-αMeL-LD-Orn-K((2-[2-(2-Amino-ethoxy)-ethoxy]-acetyl)2-(γ-Glu)-CO-(CH2)18-CO2H)AQ-Aib-EFIE-αMeY-LIEGGPSSGAPPPS-NH2 (peptide)
# peptide: XXEGTFTSDYSIXLDXKAQXEFIEXLIEGGPSSGAPPPS
# modifications: D-Tyr1; Aib2; αMeL13; Orn16; K17 conjugated to (2-[2-(2-Amino-ethoxy)-ethoxy]-acetyl)2-(γ-Glu)-CO-(CH2)18-CO2H; Aib20; αMeY25; C-terminal amide (NH2)
# Experiments:
# Assay in all cases: cell-based or functional assay
# [1] = target: human GLP-1 receptor (GLP-1R) (human, UniProt P43220 24-463)
# [2] = target: T1, human gastric inhibitory peptide …
# [3] = target: T2, human gastric inhibitory peptide …
# [4] = target: T3, human GLP-1 receptor (GLP-1R) (human), …
Binder,hGLP1R cAMP EC50 ratio [1],hGIPR cAMP EC50 ratio [2],hGIPR cAMP EC50 ratio [3],hGIPR cAMP Rel EC50 [3] [nM],hGLP1R cAMP EC50 ratio [4],hGLP1R cAMP Rel EC50 [4] [nM]
B1,0.115,0.374,–,–,–,–
Y[Aib]EGT[αMePhe(2-F)]TSDHSI[αMeL]LDEK([AEEA-AEEA-γGlu-C18 diacid])AQ[Aib]HFI[dE]YLIEGG-NH2 (not fully specified) [Example 180],–,–,0.133,0.79,0.0212,2.16
Y[Aib]EGT[αMePhe(2-F)]TSDHSI[αMeL]LDEK([AEEA-AEEA-γGlu-C18 diacid])AQ[Aib]HFI[dE]YLIEGGPSSG-NH2 (not fully specified) [Example 179],–,–,0.0575,1.83,0.0169,2.7
